# Measurements: US8822640B2, “Tetrameric streptavidin mutein with reversible biotin binding capability” (UTI Limited Partnership, priority 2011, dated 2014)
# Key:
# [1] = system: biotinylated protein G and biotinylated IgG; assay: Mutein-agarose affinity matrix: purification of biotinylated proteins, matrix stability and reuse; conditions: comparison of FIGS. 7 and 10
# Protocol: Other methods. BIAcore biosensor for determining the kinetic parameters, preparation of streptavidin-agarose matrix and purification of biotinylated proteins were performed as previously described (Wu and Wong, 2005a; Wu and Wong, 2005b).
# Stable subunit interactions in the 8-aa-loop-H127 mutein. The purified 8-aa-loop-H127C mutein can be immobilized to the agarose matrix with an estimated concentration of 3.8 mg/ml of settled agarose beads. […] Since it is likely that only one subunit in an tetrameric 8-aa-loop-H127C mutein was chemically coupled to the matrix (the other three subunits associated with the immobilized subunit via non-covalent interactions), this observation illustrates that the subunit interactions between the subunits in the tetrameric 8-aa-loop-H127C mutein were stable enough and the non-covalently associated subunits were not washed off from the column under the conditions used for the binding, washing and elution processes.
# Application of the 8-aa-loop-H127C mutein-agarose matrices for purification of biotinylated protein G and biotinylated IgG. […] The bound biotinylated proteins could be eluted off from the column using 4 mM biotin (FIGS. 7 and 8).
# [2] = Biotin binding data taken from literature / U.S. Pat. No. 6,312,916 B1; conditions: for t1/2, half-life of biotin in the SAV-biotin complex: estimated as 0.693/koff/60 from the cited koff
# [3] = data from U.S. Pat. No. 6,312,916 B1, cited from earlier work
molecule,measurement,setting,value
"SAV mutein from Roche: commercially available streptavidin mutein with reversible biotin binding, changes S27R, S45R and L110W (U.S. Pat. No. 6,312,916 B1) (protein) AEAGITGTWYNQLGRTFIVTAGADGALTGTYERAVGNAESRYVLTGRYDSAPATDGSGTALGWTVAWKNNYRNAHSATTWSGQYVGGAEARINTQWLWTSGTTEANAWKSTLVGHDTFTKVKPSAAS",binding capacity of the matrix for biotinylated protein G,[1],significantly less than that of the 8-aa-loop-H127C mutein
same,"t1/2, half-life of biotin in the SAV-biotin complex",[2],1.96 min
same,"t1/2, half-life of biotin in the SAV-biotin complex",[2]; listed as Roche mutein,1.9 min
same,biotin binding affinity lower than that of the 8-aa-loop-H127C mutein,[2]; ratio of Kd values,~10 fold
same,half-life of biotin in the SAV-biotin complex shorter than that of the 8-aa-loop-H127C mutein,[2]; ratio of t1/2 values,~14 fold
same,ka or kon,[3],45000 M⁻¹ s⁻¹
same,kd or koff,[3],0.0059 s⁻¹
same,Kd,[3]; read-out: Kd (biotin binding affinity),130 nM
